B1: antibody 3 (antibody, V domains shown)
VH: QVTLKESGPGILQPSQTLSLTCSFSGFSLTTFAMGIGWVRQPSGKGLEWLAHIWWDGEKYNNPVLKSRLTISKDTSKNQVFLRIANVDTPDTATYYCARISSIYYIIDNWGQGTSVTVSS
VL: DIVLTQSPATLSVTPGHSVSLSCRASQSISNNLHWYQKKSHESPRLLIKYVSQSISGIPSRFSGSGSGTDFTLSINSVETEDFGMYFCQQSYNWPLTFGAGTKLELK
notes: mouse IgG, kappa light chain; also called clone #3; purified antibody 3
B2: antibody 51 (antibody, V domains shown)
VH: QVQLQQSGAELVKPGASVKISCKASGYTFSNYWMNWVKQRPGKGLEWIGQIYPGDGDTKYNGKFKNKATLTADKSSSTAYMQFSSLTSEDSAVYFCARGDLVFVYWGLGTLVTVSA
VL: DVQITQSPSYLAVSPGETITINCRASKNIRKYLAWYQEKPGKTNKLLIYSGSTSQSGVPSRFSGSGSGTDFTLTISSLEPEDFAMYYCQQHNEYPYTFGGGTKLEIK
notes: mouse IgG, kappa light chain; also called clone #51
B3: antibody 47 (antibody, V domains shown)
VH: QVQLQQSGAELVRPGTSVKVSCKASGYAFTNYLIEWVKQRPGQGLEWIGVINPGSGFTNYNEKFKGKAILNADKSSSTAYMQLISLTSEDSAVYFCARDLKRAMDHWGQGTSVTVSS
VL: DIQMTQSPASQSASLGESVTITCLASQTIGTWLAWYQQKPGKSPQLLIHAATSLADGVPSRFSGSGSGTKFSFKISSLQAEDFVSYYCQQIYSSPYTFGGGTKLEIK
notes: mouse IgG, kappa light chain; also called clone #47

Legend:
[1] = molecular target: T1, miR2-FL-WT-T7 (mouse, UniProt Q80WQ6 1-827); test: FACS on MEF-DKO-miR2-FL-WT-T7 cells
T1 construct: on MEF-DKO cells
T1 sequence: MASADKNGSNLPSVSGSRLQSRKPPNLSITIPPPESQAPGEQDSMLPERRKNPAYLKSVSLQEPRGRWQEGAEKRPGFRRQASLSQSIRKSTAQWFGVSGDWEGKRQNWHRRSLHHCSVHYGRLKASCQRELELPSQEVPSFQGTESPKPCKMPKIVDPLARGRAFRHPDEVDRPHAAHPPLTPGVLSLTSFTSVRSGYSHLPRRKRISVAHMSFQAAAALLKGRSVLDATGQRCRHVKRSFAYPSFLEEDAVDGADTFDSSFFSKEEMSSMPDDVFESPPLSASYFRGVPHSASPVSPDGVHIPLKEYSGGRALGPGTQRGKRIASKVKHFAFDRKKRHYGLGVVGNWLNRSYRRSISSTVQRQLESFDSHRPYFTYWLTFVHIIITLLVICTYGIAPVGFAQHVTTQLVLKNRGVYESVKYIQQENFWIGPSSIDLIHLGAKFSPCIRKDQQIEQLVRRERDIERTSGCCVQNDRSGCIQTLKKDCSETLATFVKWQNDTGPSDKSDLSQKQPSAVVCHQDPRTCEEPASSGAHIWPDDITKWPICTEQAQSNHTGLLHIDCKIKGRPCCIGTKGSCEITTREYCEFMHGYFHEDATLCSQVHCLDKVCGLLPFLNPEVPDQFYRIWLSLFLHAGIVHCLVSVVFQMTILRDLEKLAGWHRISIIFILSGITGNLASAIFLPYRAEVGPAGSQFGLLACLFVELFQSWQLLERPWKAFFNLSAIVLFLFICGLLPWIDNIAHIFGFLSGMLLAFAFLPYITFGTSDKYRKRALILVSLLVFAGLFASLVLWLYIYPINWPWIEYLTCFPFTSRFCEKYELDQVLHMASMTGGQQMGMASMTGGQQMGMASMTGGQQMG

[2] = molecular target: T2, hiR2-FL-WT-FLAG (human, UniProt Q6PJF5 1-856); test: FACS, MEF-DKO-hiR2-FL-WT-FLAG cells, 3 µg/ml
T2 construct: on MEF-DKO cells
T2 sequence: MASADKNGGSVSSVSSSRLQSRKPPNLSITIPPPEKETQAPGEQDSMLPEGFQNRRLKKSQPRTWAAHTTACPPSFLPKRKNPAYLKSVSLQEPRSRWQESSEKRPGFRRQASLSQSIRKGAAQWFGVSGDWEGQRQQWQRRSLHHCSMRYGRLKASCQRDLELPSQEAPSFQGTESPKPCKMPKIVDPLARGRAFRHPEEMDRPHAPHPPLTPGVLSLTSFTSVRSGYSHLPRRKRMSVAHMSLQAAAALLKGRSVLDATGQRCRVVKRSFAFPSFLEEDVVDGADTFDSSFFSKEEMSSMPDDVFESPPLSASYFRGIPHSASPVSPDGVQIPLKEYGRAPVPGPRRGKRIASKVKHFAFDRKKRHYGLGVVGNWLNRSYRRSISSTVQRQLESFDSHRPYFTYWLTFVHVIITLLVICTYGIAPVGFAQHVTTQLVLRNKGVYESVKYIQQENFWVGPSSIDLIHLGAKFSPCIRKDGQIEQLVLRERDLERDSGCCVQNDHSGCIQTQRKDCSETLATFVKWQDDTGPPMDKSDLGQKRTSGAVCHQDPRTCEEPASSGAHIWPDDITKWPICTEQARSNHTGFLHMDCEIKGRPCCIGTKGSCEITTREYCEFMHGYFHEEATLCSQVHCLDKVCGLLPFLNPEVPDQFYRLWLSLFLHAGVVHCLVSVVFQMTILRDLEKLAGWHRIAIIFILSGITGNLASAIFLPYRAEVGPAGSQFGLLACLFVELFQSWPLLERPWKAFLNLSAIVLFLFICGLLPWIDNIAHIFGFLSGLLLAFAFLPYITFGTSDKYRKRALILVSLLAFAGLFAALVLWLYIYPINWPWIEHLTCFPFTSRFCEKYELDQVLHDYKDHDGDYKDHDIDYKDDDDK
Protocol: In brief, immortalized MEF-DKO-EV control cells, MEF-DKO-hiR2-FL-WT-FLAG cells and MEF-DKO-miR2-FL-WT-FLAG cells were harvested with 10 mM EDTA in PBS, washed and resuspended in FACS buffer (PBS, 3% FBS, 0.05% sodium azide), and seeded in Nunc U-bottom 96-well plates (Thermo Fisher Scientific, USA) at approximately 3×10⁵ cells per well. To pellet cells and remove supernatants, the plates were centrifuged at 1,500 rpm and 4° C. for 3 minutes. For primary staining, cells were resuspended in 100 μl per well of either FACS buffer alone (controls), mouse monoclonal anti-FLAG IgG (Sigma-Aldrich, USA) at 3 μg/ml FACS buffer or the antibodies of the invention also at 3 μg/ml FACS buffer and incubated on ice for 1 hour. Afterwards, plates were centrifuged at 1,500 rpm and 4° C. for 3 minutes and washed twice with 200 μl per well of FACS buffer. For secondary staining, cells were spun down and resuspended in 100 μl per well of PE-conjugated goat anti-mouse IgG F(ab′)2 detection fragment (Dianova, Germany) diluted 1:100 in FACS buffer. Protected from light, the cell suspensions were incubated on ice for 1 hour. Plates were then centrifuged at 1,500 rpm and 4° C. for 3 minutes and washed three times with 200 μl per well of FACS buffer. Finally, cells were resuspended in 150 μl per well of FACS buffer and analyzed using a BD Accuri™ C6 Plus flow cytometer (Becton Dickinson, Germany).

Row | Binder | binding result [1] | binding result [2]
1 | B1 | no binding (tested: 3 µg/ml) | –
2 | B2 | – | binds
3 | B3 | – | binds
